Assay results reported in patent publication US20180016312A1 (Pieris, published 2018).
Numbering of substitutions follows the chain as printed.

B1: hNGAL lipocalin mutein SEQ ID NO: 9 (designed binder)
chain: QDSTSDLIPAPPLSKVPLQQNFQDNQFHGKWYVVGHAGNYILREDKDPGKMWATIYELKEDKSYDVTEVSFGPKKCNYRIWTFVPGSQPGEFTLGGIKSPPGGTSTLVRVVSTNYNQHAMVFFKHVLQNREFFEITLYGRTKELTSELKENFIRFSKSLGLPENHIVFPVPIDQCIDGSAWSHPQFEK
notes: Mutein of mature hNGAL; Biotinylated with NHS-PEG4-Biotin for the SPR assay
B2: hNGAL lipocalin mutein SEQ ID NO: 1 (designed binder)
chain: B1 chain with H36Q, D65N, E68G, R79T
notes: Mutein of mature hNGAL
B3: hNGAL lipocalin mutein SEQ ID NO: 10 (designed binder)
chain: B1 chain with H36Q, G49Q, E68G, P73A, N77V
notes: Mutein of mature hNGAL
B4: hNGAL lipocalin mutein SEQ ID NO: 6 (designed binder)
chain: B1 chain with H36Q, G49E, E68G, P100S, G103Q
notes: Mutein of mature hNGAL
B5: hNGAL lipocalin mutein SEQ ID NO: 13 (designed binder)
chain: QDSTSDLIPAPPLSKVPLQQNFQDNQFHGKWYVVGVAGNWYLREDKDPIKMTATIYELKEDKSYDVTQVGFEQEKCKYSIHTFVPGSQPGEFTLGDIKSWPGDTSPLVRVVSTNYNQHAMVFFKGMMQDREVFAITLYGRTKELTSELKENFIRFSKSLGLPENHIVFPVPIDQCIDGSAWSHPQFEK
notes: Mutein of mature hNGAL
B6: hNGAL lipocalin mutein SEQ ID NO: 12 (designed binder)
chain: B5 chain with D96N, N116D, M126V
notes: Mutein of mature hNGAL
B7: hNGAL lipocalin mutein SEQ ID NO: 3 (designed binder)
chain: B5 chain with D65N, E74K, P106L, M126V, D129N
notes: Mutein of mature hNGAL
B8: hNGAL lipocalin mutein SEQ ID NO: 14 (designed binder)
chain: B5 chain with V36M, Y41D, G70A, E74K, D96Q, M126V, D129N
notes: Mutein of mature hNGAL
B9: hNGAL lipocalin mutein SEQ ID NO: 5 (designed binder)
chain: QDSTSDLIPAPPLSKVPLQQNFQDNQFHGKWYVVGQAGNYWLREDKDPIKMSATIYELKEDKSYNVTIVYFTRKKCSYRIYTFVPGSQPGEFTLGPIKSYPGDTSTLVRVVSTNYNQHAMVFFKHVYQNREWFEITLYGRTKELTSELKENFIRFSKSLGLPENHIVFPVPIDQCIDGSAWSHPQFEK
notes: Mutein of mature hNGAL
B10: benchmark antibody 1 (SEQ ID NOs: 17/18) (antibody, human IgG1, lambda, V domains shown)
VH: not shown
VL: QPGLTQPPSVSVAPGQTARITCGGNNIGSKSVHWYQQKPGQAPVLVVYDDSDRPSGIPERFSGSNSGNTATLTISRVEAGDEADYYCQVWDSSSDHYVFGTGTKVTVLG
B11: hNGAL lipocalin mutein SEQ ID NO: 4 (designed binder)
chain: QDSTSDLIPAPPLSKVPLQQNFQDNQFHGKWYVVGEAGNVELREDKDPVKMTATIYELKEDKSYNVTEVRFWLKKCKYNIHTFVPGSQPGEFTLGAIKSGPGMTSTLVRVVSTNYNQHAMVFFKTVMQNREWFWITLYGRTKELTSELKENFIRFSKSLGLPENHIVFPVPIDQCIDGSAWSHPQFEK
notes: Mutein of mature hNGAL
B12: hNGAL lipocalin mutein SEQ ID NO: 2 (designed binder)
chain: QDSTSDLIPAPPLSKVPLQQNFQDNQFHGKWYVVGFAGNHRLREDKDPGKMHATIYELKEDKSYNVTDVTFAFKKCNYRIHTFVPGSQPGEFTLGNIKSWPGETSTLVRVVSTNYNQHAMVFFKTVMQNREWFWITLYGRTKELTSELKENFIRFSKSLGLPENHIVFPVPIDQCIDGSAWSHPQFEK
notes: Mutein of mature hNGAL

biological target: T1, human angiopoietin-2 (human, UniProt O15123 19-496, limits assumed); assay: SPR Biacore T200; biotinylated mutein captured, hAng-2 analyte, 1:1 model, 25 C
T1 construct: Bought recombinant protein with a His tag (detected by anti-HIS-tag antibody); also called human Ang-2; hAng-2
T1 sequence (looked up): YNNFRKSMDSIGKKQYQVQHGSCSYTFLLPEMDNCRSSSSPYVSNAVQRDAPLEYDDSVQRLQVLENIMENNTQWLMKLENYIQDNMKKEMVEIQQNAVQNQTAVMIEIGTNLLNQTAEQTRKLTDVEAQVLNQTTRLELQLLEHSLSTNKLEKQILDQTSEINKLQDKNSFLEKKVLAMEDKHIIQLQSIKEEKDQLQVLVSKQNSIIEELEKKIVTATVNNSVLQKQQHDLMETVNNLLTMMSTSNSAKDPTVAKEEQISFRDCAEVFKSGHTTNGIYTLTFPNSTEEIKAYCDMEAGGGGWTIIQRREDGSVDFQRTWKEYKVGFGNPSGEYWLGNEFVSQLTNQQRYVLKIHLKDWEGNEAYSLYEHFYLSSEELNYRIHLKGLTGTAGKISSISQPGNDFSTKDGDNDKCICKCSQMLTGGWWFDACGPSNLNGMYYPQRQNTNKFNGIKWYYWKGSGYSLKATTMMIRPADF
Experimental: In the SPR affinity assay, biotinylated muteins and negative control were captured on a sensor chip CAP using the Biotin CAPture Kit (GE Healthcare): Sensor Chip CAP is pre-immobilized with an ssDNA oligo. Undiluted Biotin CAPture Reagent (streptavidin conjugated with the complementary ss-DNA oligo) was applied at a flow rate of 2 μl/min for 300 s. Subsequently, 0.02 μg/mL of biotinylated muteins or negative control were applied for 300 s at a flow rate of 5 μl/min. […] The reference channel was loaded with Biotin CAPture Reagent only.
Applying a flow rate of 30 μL/min, a multi cycle kinetics approach was used with a sample contact time of 180 s and a dissociation time of 4600 s. All measurements were performed at 25° C. […] Data were evaluated with Biacore T200 Evaluation software (V 1.0). Double referencing was used. A 1:1 Binding model was used to fit the raw data even though the analyte was known to be a multimer.

Binder | Kd [nM] | koff [s⁻¹]
B1 | 0.29 | 9.4e-05

biological target: T1, human angiopoietin-2; assay: competition cell ECL; hAng-2 pre-incubated with binder, free Ang-2 captured on HEK:hTie-2 cells (competitor)
Experimental: (§1) All incubation steps were performed at room temperature, and the plate was washed after each incubation step with 80 μl PBS buffer for two times using a Biotek EL405 select CW washer (Biotek). In the first step, a 384 well plate was precoated for 5 minutes with poly D lysine and washed twice with PBS. 10⁴ HEK:hTie-2 cells per well were seeded and allowed to adhere to the surface of the wells overnight at 37° C. . After washing, cell coated wells were blocked with 60 μl PBS/Casein (2% Casein in PBS) for 1 h at room temperature.
(§2) After washing, 35 μl surfactant-free reading buffer was added to each well and the ECL signal of every well was read using a Mesoscale Discovery reader.

Binder | IC50 [nM]
B1 | 3.82
B2 | 18.9
B3 | 4.63
B4 | 3.46
B5 | 5.43
B6 | 5.29
B7 | 10.7
B8 | 6.41

biological target: T1, human angiopoietin-2; assay: competition ELISA; 0.5 nM hAng-2 pre-incubated with binder, free hAng-2 captured on hTie-2 Fc (competitor)
Experimental: All incubation steps were performed with shaking at 300 rpm, and the plate was washed after each incubation step with 80 μl PBS-T buffer (PBS, 0.05% Tween 20) for five times using a Biotek EL405 select CW washer (Biotek). In the first step, a 384 well plate was directly coated with 20 μl of soluble human hTie-2 Fc (Reliatech) at a concentration of […] in PBS over night at 4 ° C. After washing, h Tie-2 Fc coated wells were blocked with 60 μl PBS-T/BSA (2% BSA in PBS containing 0.1% Tween 20) for 1 h at room temperature.
Curve fitting was performed using GraphPad Prism 4 software.

Binder | IC50 [nM]
B1 | 0.0929
B2 | 0.558
B3 | 0.0794
B4 | 0.0627
B5 | 0.184
B6 | 0.131
B7 | 0.319
B8 | 0.105
B9 | 0.861
B10 | 0.0158
B11 | 0.412
B12 | 1.71

biological target: T2, mouse angiopoietin-2 (mouse, UniProt O35608 19-496, limits assumed); assay: competition cell ECL; mAng-2 pre-incubated with binder, free Ang-2 captured on HEK:hTie-2 cells (competitor)
T2 construct: Bought recombinant protein; also called mouse Ang-2; mAng-2
T2 sequence (looked up): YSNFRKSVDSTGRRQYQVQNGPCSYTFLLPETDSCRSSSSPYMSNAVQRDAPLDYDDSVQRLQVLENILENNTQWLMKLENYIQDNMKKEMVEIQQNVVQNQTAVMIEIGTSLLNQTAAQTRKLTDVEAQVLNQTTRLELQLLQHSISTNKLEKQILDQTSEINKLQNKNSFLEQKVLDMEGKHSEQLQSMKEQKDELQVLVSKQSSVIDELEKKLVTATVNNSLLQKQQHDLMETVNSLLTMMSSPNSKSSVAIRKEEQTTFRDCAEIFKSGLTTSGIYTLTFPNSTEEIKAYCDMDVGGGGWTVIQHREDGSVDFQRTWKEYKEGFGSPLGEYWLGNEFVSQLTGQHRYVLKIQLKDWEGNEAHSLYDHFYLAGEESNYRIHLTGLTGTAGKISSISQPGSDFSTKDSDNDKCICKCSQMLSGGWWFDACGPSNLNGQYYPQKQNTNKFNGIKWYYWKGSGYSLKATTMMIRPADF
Experimental: as §1, §2

Binder | IC50 [nM]
B1 | 1.39
B2 | 3.98
B3 | 1.05
B4 | 1.21
B5 | 7.34
B6 | 3.12
B7 | 23.2
B8 | 2.32

biological target: T1, human angiopoietin-2; assay: cell-based or functional assay

Binder | IC50 mean, LEC proliferation assay (CellTiter-Glo) [nM]
B1 | 0.142
B2 | 2.25
B7 | 2.81
B10 | 0.0668

biological target: T1, human angiopoietin-2; assay: ELISA; Ang-2 coated, mutein detected by anti-Streptag-HRP
Experimental: Binding of muteins was tested by a sandwich ELISA assay.
20 μl of serially diluted muteins were incubated in PBS-T/BSA for 1h at room temperature (RT).
The residual supernatants were discarded and 20 μl HRP-labeled anti-Streptag antibody was added at a predetermined optimal concentration in PBS-T/BSA and incubated for 1 h at RT. After washing, 20 μl fluorogenic HRP substrate (QuantaBlu, Thermo) was added to each well, and the reaction was allowed to proceed for 15 to 60 minutes. The fluorescence intensity of every well on the plate was read using a fluorescence microplate reader (Tecan or Molecular Devices). Curve fitting was performed using GraphPad Prism 4 software.

Binder | EC50 [nM]
B1 | 2.1
B2 | 3.7
B7 | 2.8
B9 | 3.5
B12 | 3
